# According to doi:10.1101/2024.05.02.592151 (bioRxiv, 2024):
# T1: CAP-G2 (in recombinant human condensin II) (human, UniProt Q86XI2 1-1143)
# T1 sequence: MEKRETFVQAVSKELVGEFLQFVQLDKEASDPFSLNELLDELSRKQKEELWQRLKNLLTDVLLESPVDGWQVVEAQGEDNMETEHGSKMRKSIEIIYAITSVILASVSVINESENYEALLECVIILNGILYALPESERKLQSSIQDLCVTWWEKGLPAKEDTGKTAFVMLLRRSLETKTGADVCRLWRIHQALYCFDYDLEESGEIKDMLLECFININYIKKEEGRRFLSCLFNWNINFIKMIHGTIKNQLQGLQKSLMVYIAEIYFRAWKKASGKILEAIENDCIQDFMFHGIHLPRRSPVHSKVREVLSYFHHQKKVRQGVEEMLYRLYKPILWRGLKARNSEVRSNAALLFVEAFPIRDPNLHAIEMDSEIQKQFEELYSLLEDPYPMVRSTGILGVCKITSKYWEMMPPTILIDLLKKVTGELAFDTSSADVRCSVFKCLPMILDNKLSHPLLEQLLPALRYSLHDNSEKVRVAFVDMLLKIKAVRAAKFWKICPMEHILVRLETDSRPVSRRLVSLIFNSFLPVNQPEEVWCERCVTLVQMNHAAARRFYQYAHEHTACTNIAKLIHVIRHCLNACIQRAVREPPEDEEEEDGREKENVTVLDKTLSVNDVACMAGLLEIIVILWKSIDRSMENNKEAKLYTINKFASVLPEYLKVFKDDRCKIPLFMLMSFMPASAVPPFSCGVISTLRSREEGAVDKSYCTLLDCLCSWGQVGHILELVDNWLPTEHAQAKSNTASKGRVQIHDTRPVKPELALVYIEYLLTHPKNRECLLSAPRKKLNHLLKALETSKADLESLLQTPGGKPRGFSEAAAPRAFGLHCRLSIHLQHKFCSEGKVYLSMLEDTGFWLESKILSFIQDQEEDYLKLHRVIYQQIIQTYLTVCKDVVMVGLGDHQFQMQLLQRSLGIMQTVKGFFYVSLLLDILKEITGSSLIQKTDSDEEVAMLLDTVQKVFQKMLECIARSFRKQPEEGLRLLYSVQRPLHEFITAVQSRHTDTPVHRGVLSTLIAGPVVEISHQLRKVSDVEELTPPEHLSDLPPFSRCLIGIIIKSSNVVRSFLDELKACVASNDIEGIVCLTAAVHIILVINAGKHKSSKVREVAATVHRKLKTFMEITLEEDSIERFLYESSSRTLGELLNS
# T2: CAP-D3 (in recombinant human condensin II) (human, UniProt P42695 1-1498)
# T2 sequence: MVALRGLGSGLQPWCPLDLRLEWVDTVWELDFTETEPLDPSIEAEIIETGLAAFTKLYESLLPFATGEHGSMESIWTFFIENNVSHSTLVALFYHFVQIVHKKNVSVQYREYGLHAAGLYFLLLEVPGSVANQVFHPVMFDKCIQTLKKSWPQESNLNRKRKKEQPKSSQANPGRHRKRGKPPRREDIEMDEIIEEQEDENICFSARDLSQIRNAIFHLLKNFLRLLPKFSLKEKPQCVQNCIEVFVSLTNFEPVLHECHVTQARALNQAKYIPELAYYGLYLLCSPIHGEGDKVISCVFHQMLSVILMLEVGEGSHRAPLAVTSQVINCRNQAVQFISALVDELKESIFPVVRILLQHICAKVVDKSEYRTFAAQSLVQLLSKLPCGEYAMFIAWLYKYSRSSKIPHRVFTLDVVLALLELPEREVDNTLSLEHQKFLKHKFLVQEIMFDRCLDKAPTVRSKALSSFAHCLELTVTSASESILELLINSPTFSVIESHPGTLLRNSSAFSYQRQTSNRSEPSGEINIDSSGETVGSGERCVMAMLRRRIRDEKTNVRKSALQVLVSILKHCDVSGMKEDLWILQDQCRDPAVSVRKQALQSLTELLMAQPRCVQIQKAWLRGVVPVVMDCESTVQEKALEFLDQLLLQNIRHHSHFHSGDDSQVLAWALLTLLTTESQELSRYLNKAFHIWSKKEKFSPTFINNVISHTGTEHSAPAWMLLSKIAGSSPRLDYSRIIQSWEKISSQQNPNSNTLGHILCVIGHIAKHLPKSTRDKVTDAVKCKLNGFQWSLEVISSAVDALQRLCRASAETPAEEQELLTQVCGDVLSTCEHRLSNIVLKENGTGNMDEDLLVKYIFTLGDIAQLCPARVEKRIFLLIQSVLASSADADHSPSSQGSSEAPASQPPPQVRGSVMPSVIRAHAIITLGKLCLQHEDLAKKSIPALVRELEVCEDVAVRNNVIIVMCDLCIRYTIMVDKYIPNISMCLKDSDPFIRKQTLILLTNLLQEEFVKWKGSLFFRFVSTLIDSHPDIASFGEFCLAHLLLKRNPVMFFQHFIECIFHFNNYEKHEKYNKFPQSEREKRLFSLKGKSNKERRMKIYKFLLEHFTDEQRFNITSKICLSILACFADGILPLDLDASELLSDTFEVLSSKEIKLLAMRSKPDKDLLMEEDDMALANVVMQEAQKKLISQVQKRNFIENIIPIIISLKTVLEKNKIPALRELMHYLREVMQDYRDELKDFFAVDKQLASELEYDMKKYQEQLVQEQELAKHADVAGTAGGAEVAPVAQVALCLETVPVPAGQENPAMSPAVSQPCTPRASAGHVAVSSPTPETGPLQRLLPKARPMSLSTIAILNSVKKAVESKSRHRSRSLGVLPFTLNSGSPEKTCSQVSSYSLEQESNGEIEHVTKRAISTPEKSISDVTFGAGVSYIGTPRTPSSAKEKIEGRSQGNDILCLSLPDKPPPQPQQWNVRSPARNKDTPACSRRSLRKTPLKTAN
# What was measured:
# [1] = molecular target: T1, CAP-G2 (in recombinant human condensin …); test: cross-linking
# [2] = molecular target: condensin II pentamer (recombinant, human) (human, UniProt O95347;Q9NTJ3;Q6IBW4;P42695;Q86XI2); test: cross-linking
# [3] = molecular target: SMC2 (in recombinant human condensin II) (human, UniProt O95347 1-1197); test: cryo-EM structure
# [4] = molecular target: T2, CAP-D3 (in recombinant human condensin …); test: cryo-EM structure
# [5] = molecular target: T1, CAP-G2 (in recombinant human condensin …); test: cryo-EM structure
# [6] = molecular target: SMC4 (in recombinant human condensin II) (human, UniProt Q9NTJ3 2-1288); test: cryo-EM structure
# Chain of SMC4 (in recombinant human condensin II) (Q9NTJ3 2-1288): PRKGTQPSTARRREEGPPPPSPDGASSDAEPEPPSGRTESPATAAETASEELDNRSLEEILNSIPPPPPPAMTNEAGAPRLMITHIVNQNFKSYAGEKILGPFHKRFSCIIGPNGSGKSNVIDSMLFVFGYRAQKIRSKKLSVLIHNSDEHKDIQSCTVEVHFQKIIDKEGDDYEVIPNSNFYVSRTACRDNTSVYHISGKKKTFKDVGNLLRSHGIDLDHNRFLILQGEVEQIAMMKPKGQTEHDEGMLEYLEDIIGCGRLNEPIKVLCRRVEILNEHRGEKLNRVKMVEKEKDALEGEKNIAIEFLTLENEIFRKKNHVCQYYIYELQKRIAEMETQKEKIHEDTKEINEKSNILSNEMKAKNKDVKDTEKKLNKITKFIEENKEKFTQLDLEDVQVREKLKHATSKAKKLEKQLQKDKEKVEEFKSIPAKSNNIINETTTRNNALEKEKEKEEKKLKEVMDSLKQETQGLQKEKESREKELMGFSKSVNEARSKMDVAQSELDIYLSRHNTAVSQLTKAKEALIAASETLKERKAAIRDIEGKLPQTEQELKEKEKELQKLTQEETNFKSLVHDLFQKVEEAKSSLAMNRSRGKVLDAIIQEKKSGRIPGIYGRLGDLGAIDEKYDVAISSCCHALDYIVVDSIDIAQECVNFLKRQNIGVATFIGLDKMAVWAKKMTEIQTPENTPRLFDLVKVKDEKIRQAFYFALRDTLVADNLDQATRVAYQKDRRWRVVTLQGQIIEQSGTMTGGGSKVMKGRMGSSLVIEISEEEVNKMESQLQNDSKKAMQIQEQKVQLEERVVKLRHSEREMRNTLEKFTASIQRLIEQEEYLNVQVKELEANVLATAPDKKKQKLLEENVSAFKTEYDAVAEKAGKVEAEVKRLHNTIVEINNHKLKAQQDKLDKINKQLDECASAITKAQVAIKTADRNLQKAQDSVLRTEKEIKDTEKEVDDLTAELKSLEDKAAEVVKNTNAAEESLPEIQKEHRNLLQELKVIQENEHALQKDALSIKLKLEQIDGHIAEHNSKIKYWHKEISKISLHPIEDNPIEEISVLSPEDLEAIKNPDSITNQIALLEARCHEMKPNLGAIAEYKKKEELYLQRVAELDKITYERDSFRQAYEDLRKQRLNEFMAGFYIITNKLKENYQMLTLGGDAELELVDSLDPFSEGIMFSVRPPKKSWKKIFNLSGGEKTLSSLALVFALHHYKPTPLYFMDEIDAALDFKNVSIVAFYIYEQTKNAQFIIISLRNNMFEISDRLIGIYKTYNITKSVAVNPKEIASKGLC
# Chain of SMC2 (in recombinant human condensin II) (O95347 whole entry): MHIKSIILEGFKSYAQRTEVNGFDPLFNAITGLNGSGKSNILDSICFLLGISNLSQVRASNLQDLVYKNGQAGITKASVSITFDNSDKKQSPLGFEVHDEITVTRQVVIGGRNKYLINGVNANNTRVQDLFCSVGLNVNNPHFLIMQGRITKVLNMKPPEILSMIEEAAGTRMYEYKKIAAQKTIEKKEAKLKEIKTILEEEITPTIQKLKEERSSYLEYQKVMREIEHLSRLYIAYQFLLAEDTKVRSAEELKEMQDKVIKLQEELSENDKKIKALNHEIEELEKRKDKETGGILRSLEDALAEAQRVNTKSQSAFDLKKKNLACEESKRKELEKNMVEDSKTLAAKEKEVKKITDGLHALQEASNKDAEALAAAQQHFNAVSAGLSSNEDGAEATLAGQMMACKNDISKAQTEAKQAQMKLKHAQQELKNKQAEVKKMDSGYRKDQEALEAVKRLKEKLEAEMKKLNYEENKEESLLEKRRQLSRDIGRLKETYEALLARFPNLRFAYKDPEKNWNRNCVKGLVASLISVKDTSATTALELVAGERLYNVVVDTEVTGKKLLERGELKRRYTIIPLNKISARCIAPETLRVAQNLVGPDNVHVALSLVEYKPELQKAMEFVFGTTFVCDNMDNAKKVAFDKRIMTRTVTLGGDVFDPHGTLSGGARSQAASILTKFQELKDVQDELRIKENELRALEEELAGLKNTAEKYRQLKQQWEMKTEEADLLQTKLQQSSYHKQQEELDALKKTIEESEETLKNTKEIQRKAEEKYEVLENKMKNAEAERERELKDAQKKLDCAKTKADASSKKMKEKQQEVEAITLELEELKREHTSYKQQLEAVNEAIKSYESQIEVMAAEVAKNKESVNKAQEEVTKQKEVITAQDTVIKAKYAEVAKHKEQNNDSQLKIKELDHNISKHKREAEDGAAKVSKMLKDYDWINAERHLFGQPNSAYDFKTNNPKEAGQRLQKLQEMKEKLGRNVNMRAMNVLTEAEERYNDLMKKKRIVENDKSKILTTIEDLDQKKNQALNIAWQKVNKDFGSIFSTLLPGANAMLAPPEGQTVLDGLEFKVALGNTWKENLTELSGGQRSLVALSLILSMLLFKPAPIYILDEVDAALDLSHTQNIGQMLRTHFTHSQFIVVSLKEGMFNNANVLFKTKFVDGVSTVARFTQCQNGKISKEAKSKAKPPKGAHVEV
# Chain of condensin II pentamer (recombinant, human) (O95347 whole entry, chain 1 of 2): as the sequence (O95347 whole entry) above
# Chain of condensin II pentamer (recombinant, human) (Q9NTJ3 2-1288, chain 2 of 2): as the sequence (Q9NTJ3 2-1288) above
binding result [1],binding result [2],binding result [3],binding result [4],binding result [5],binding result [6],Binder
binds,binds,,,,,MBP-MCPH1_(1-435) (domain or fragment) MAAPILKDVVAYVEVWSSNGTENYSKTFTTQLVDMGAKVSKTFNKQVTHVIFKDGYQSTWDKAQKRGVKLVSVLWVEKCRTAGAHIDESLFPAANMNEHLSSLIKKKRKCMQPKDFNFKTPENDKRFQKKFEKMAKELQRQKTNLDDDVPILLFESNGSLIYTPTIEINSRHHSAMEKRLQEMKEKRENLSPTSSQMIQQSHDNPSNSLCEAPLNISRDTLCSDEYFAGGLHSSFDDLCGNSGCGNQERKLEGSINDIKSDVCISSLVLKANNIHSSPSFTHLDKSSPQKFLSNLSKEEINLQRNIAGKVVTPDQKQAAGMSQETFEEKYRLSPTLSSTKGHLLIHSRPRSSSVKRKRVSHGSHSPPKEKCKRKRSTRRSIMPRLQLCRSEDRLQHVAGPALEALSCGESSYDDYFSPDNLKERYSENLPPESQL
,,binds,binds,binds,binds,CAP-H2 (in recombinant human condensin II) (natural protein) MEDVEARFAHLLQPIRDLTKNWEVDVAAQLGEYLEELDQICISFDEGKTTMNFIEAALLIQGSACVYSKKVEYLYSLVYQALDFISGKRRAKQLSSVQEDRANGVASSGVPQEAENEFLSLDDFPDSRTNVDLKNDQTPSEVLIIPLLPMALVAPDEMEKNNNPLYSRQGEVLASRKDFRMNTCVPHPRGAFMLEPEGMSPMEPAGVSPMPGTQKDTGRTEEQPMEVSVCRSPVPALGFSQEPGPSPEGPMPLGGGEDEDAEEAVELPEASAPKAALEPKESRSPQQSAALPRRYMLREREGAPEPASCVKETPDPWQSLDPFDSLESKPFKKGRPYSVPPCVEEALGQKRKRKGAAKLQDFHQWYLAAYADHADSRRLRRKGPSFADMEVLYWTHVKEQLETLRKLQRREVAEQWLRPAEEDHLEDSLEDLGAADDFLEPEEYMEPEGADPREAADLDAVPMSLSYEELVRRNVELFIATSQKFVQETELSQRIRDWEDTVQPLLQEQEQHVPFDIHTYGDQLVSRFPQLNEWCPFAELVAGQPAFEVCRSMLASLQLANDYTVEITQQPGLEMAVDTMSLRLLTHQRAHKRFQTYAAPSMAQP
